Results: patent publication US20180273587A1 (AILERON THERAPEUTICS, published 2018)
Positions of bridges follow the written chain, without caps; N, C: chain ends. Non-standard residues stand in square brackets, D forms with d. Gly(1-adamantyl) = N[C@H](C(=O)O)C12CC3CC(CC(C3)C1)C2; Phe(4-CF3) = N[C@@H](Cc1ccc(C(F)(F)F)cc1)C(=O)O; Phe(4-tBu) = CC(C)(C)c1ccc(C[C@H](N)C(=O)O)cc1; Bip = N[C@@H](Cc1ccc(-c2ccccc2)cc1)C(=O)O; Igl = N[C@H](C(=O)O)C1Cc2ccccc2C1; R8 = C=CCCCCCC[C@@](C)(N)C(=O)O; Cha = N[C@@H](CC1CCCCC1)C(=O)O; hAdm = homo-adamantyl glycine; S5 = C=CCCC[C@](C)(N)C(=O)O

Tests used:
Experiment in all cases: Ki table, method not stated
BCL-2 = BCL-2 (UniProt P10415 1-217, limits assumed)
Chain of BCL-2 (P10415 1-217 limits assumed): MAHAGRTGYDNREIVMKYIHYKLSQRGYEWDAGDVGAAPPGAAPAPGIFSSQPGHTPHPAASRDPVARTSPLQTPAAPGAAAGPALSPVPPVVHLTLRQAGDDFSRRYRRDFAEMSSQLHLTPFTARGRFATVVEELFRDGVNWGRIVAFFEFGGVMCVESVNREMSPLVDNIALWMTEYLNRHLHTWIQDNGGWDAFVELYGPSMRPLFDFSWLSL

MCL-1 = biological target: T1, MCL-1 (UniProt Q07820 172-327, limits assumed)
T1 construct: also called Myeloid cell leukemia 1
T1 sequence (Q07820 172-327 limits assumed): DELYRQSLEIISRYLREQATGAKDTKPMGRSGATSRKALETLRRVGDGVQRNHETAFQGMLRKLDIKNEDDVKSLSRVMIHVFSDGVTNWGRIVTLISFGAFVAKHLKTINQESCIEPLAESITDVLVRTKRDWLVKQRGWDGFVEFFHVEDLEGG

BCL-XL = BCL-XL (UniProt Q07817 1-209)
Chain of BCL-XL (Q07817 1-209): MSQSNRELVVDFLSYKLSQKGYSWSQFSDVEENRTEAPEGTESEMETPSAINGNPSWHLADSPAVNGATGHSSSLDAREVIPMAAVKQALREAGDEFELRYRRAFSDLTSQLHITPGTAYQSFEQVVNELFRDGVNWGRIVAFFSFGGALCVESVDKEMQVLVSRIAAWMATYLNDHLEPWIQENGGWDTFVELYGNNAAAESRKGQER

Ki (BCL-2) [nM] | Ki (MCL-1) [nM] | Ki (BCL-XL) [nM] | Binder
84.8 | 8.4 | 22.4 | IWIAQALRAIGDAFNAYYA (not fully specified; Ac- at N-terminus; -NH2 at C-terminus; $r8 at 9 and $ at 16 joined by all-carbon crosslinker) [SEQ ID NO: 1633]
37.7 | 19.7 | 22.3 | Ac-IAIAQALR[R8]IGDAFN[S5]YYA-NH2 (staple 9-16; SMILES CC[C@H](C)[C@H](NC(C)=O)C(=O)N[C@@H](C)C(=O)N[C@H](C(=O)N[C@@H](C)C(=O)N[C@@H](CCC(N)=O)C(=O)N[C@@H](C)C(=O)N[C@@H](CC(C)C)C(=O)N[C@@H](CCCNC(=N)N)C(=O)N[C@]1(C)CCCCCCC=CCCC[C@@](C)(C(=O)N[C@@H](Cc2ccc(O)cc2)C(=O)N[C@@H](Cc2ccc(O)cc2)C(=O)N[C@@H](C)C(N)=O)NC(=O)[C@H](CC(N)=O)NC(=O)[C@H](Cc2ccccc2)NC(=O)[C@H](C)NC(=O)[C@H](CC(=O)O)NC(=O)CNC(=O)[C@H]([C@@H](C)CC)NC1=O)[C@@H](C)CC) [SEQ ID NO: 1648]
8.7 | 19.5 | 11.6 | Ac-I[S5]IAQ[S5]LR[R8]IGDEFN[S5]YYA-NH2 (staple 9-16, 2-6; SMILES CC[C@H](C)[C@H](NC(C)=O)C(=O)N[C@@]1(C)CCCC=CCCC[C@@](C)(C(=O)N[C@@H](CC(C)C)C(=O)N[C@@H](CCCNC(=N)N)C(=O)N[C@]2(C)CCCCCCC=CCCC[C@@](C)(C(=O)N[C@@H](Cc3ccc(O)cc3)C(=O)N[C@@H](Cc3ccc(O)cc3)C(=O)N[C@@H](C)C(N)=O)NC(=O)[C@H](CC(N)=O)NC(=O)[C@H](Cc3ccccc3)NC(=O)[C@H](CCC(=O)O)NC(=O)[C@H](CC(=O)O)NC(=O)CNC(=O)[C@H]([C@@H](C)CC)NC2=O)NC(=O)[C@H](CCC(N)=O)NC(=O)[C@H](C)NC(=O)[C@H]([C@@H](C)CC)NC1=O, also called Ac-I$IAQ$LR$r8IGDEFN$YYA-NH2) [SEQ ID NO: 1641]
240 | 16.6 |  | Ac-IWIAQA[hAdm]R[R8]IGDAFN[S5]YYA-NH2 (staple 9-16, also called Ac-IWIAQAhAdmR$r8IGDAFN$YYA-NH2) [SEQ ID NO: 1691]
 | 4.2 | 81.1 | Ac-IWIAQA[Cha]R[R8]IGDAFN[S5]YYA-NH2 (staple 9-16; SMILES CC[C@H](C)[C@H](NC(C)=O)C(=O)N[C@@H](Cc1c[nH]c2ccccc12)C(=O)N[C@H](C(=O)N[C@@H](C)C(=O)N[C@@H](CCC(N)=O)C(=O)N[C@@H](C)C(=O)N[C@@H](CC1CCCCC1)C(=O)N[C@@H](CCCNC(=N)N)C(=O)N[C@]1(C)CCCCCCC=CCCC[C@@](C)(C(=O)N[C@@H](Cc2ccc(O)cc2)C(=O)N[C@@H](Cc2ccc(O)cc2)C(=O)N[C@@H](C)C(N)=O)NC(=O)[C@H](CC(N)=O)NC(=O)[C@H](Cc2ccccc2)NC(=O)[C@H](C)NC(=O)[C@H](CC(=O)O)NC(=O)CNC(=O)[C@H]([C@@H](C)CC)NC1=O)[C@@H](C)CC, also called Ac-IWIAQAChaR$r8IGDAFN$YYA-NH2) [SEQ ID NO: 1687]
 | 47.7 | 147 | Ac-IWIAQA[Igl]R[R8]IGDAFN[S5]YYA-NH2 (staple 9-16; SMILES CC[C@H](C)[C@H](NC(C)=O)C(=O)N[C@@H](Cc1c[nH]c2ccccc12)C(=O)N[C@H](C(=O)N[C@@H](C)C(=O)N[C@@H](CCC(N)=O)C(=O)N[C@@H](C)C(=O)N[C@H](C(=O)N[C@@H](CCCNC(=N)N)C(=O)N[C@]1(C)CCCCCCC=CCCC[C@@](C)(C(=O)N[C@@H](Cc2ccc(O)cc2)C(=O)N[C@@H](Cc2ccc(O)cc2)C(=O)N[C@@H](C)C(N)=O)NC(=O)[C@H](CC(N)=O)NC(=O)[C@H](Cc2ccccc2)NC(=O)[C@H](C)NC(=O)[C@H](CC(=O)O)NC(=O)CNC(=O)[C@H]([C@@H](C)CC)NC1=O)C1Cc2ccccc2C1)[C@@H](C)CC, also called Ac-IWIAQAIglR$r8IGDAFN$YYA-NH2) [SEQ ID NO: 1693]
 | 188 | 10.8 | Ac-IWIAQA[Phe(4-CF3)]R[R8]IGDAFN[S5]YYA-NH2 (staple 9-16; SMILES CC[C@H](C)[C@H](NC(C)=O)C(=O)N[C@@H](Cc1c[nH]c2ccccc12)C(=O)N[C@H](C(=O)N[C@@H](C)C(=O)N[C@@H](CCC(N)=O)C(=O)N[C@@H](C)C(=O)N[C@@H](Cc1ccc(C(F)(F)F)cc1)C(=O)N[C@@H](CCCNC(=N)N)C(=O)N[C@]1(C)CCCCCCC=CCCC[C@@](C)(C(=O)N[C@@H](Cc2ccc(O)cc2)C(=O)N[C@@H](Cc2ccc(O)cc2)C(=O)N[C@@H](C)C(N)=O)NC(=O)[C@H](CC(N)=O)NC(=O)[C@H](Cc2ccccc2)NC(=O)[C@H](C)NC(=O)[C@H](CC(=O)O)NC(=O)CNC(=O)[C@H]([C@@H](C)CC)NC1=O)[C@@H](C)CC, also called Ac-IWIAQAF4CF3R$r8IGDAFN$YYA-NH2) [SEQ ID NO: 1694]
21.9 | 7 | 15.4 | Ac-IWIAQALR[R8]IGDEFA[S5]YYA-NH2 (staple 9-16; SMILES CC[C@H](C)[C@H](NC(C)=O)C(=O)N[C@@H](Cc1c[nH]c2ccccc12)C(=O)N[C@H](C(=O)N[C@@H](C)C(=O)N[C@@H](CCC(N)=O)C(=O)N[C@@H](C)C(=O)N[C@@H](CC(C)C)C(=O)N[C@@H](CCCNC(=N)N)C(=O)N[C@]1(C)CCCCCCC=CCCC[C@@](C)(C(=O)N[C@@H](Cc2ccc(O)cc2)C(=O)N[C@@H](Cc2ccc(O)cc2)C(=O)N[C@@H](C)C(N)=O)NC(=O)[C@H](C)NC(=O)[C@H](Cc2ccccc2)NC(=O)[C@H](CCC(=O)O)NC(=O)[C@H](CC(=O)O)NC(=O)CNC(=O)[C@H]([C@@H](C)CC)NC1=O)[C@@H](C)CC) [SEQ ID NO: 1643]
 | 40.2 | 110 | Ac-IWIAQA[Gly(1-adamantyl)]R[R8]IGDAFN[S5]YYA-NH2 (staple 9-16; SMILES CC[C@H](C)[C@H](NC(C)=O)C(=O)N[C@@H](Cc1c[nH]c2ccccc12)C(=O)N[C@H](C(=O)N[C@@H](C)C(=O)N[C@@H](CCC(N)=O)C(=O)N[C@@H](C)C(=O)N[C@H](C(=O)N[C@@H](CCCNC(=N)N)C(=O)N[C@]1(C)CCCCCCC=CCCC[C@@](C)(C(=O)N[C@@H](Cc2ccc(O)cc2)C(=O)N[C@@H](Cc2ccc(O)cc2)C(=O)N[C@@H](C)C(N)=O)NC(=O)[C@H](CC(N)=O)NC(=O)[C@H](Cc2ccccc2)NC(=O)[C@H](C)NC(=O)[C@H](CC(=O)O)NC(=O)CNC(=O)[C@H]([C@@H](C)CC)NC1=O)C12CC3CC(CC(C3)C1)C2)[C@@H](C)CC, also called Ac-IWIAQAAdmR$r8IGDAFN$YYA-NH2) [SEQ ID NO: 1689]
3.2 | 1.8 | 1.4 | Ac-IWIAQALR[R8]IGDEFN[S5]YYA-NH2 (staple 9-16; SMILES CC[C@H](C)[C@H](NC(C)=O)C(=O)N[C@@H](Cc1c[nH]c2ccccc12)C(=O)N[C@H](C(=O)N[C@@H](C)C(=O)N[C@@H](CCC(N)=O)C(=O)N[C@@H](C)C(=O)N[C@@H](CC(C)C)C(=O)N[C@@H](CCCNC(=N)N)C(=O)N[C@]1(C)CCCCCCC=CCCC[C@@](C)(C(=O)N[C@@H](Cc2ccc(O)cc2)C(=O)N[C@@H](Cc2ccc(O)cc2)C(=O)N[C@@H](C)C(N)=O)NC(=O)[C@H](CC(N)=O)NC(=O)[C@H](Cc2ccccc2)NC(=O)[C@H](CCC(=O)O)NC(=O)[C@H](CC(=O)O)NC(=O)CNC(=O)[C@H]([C@@H](C)CC)NC1=O)[C@@H](C)CC) [SEQ ID NO: 1649]
 | 151 | 16.9 | Ac-IW[Phe(4-tBu)]AQALR[R8]IGDAFN[S5]YYA-NH2 (staple 9-16; SMILES CC[C@H](C)[C@H](NC(C)=O)C(=O)N[C@@H](Cc1c[nH]c2ccccc12)C(=O)N[C@@H](Cc1ccc(C(C)(C)C)cc1)C(=O)N[C@@H](C)C(=O)N[C@@H](CCC(N)=O)C(=O)N[C@@H](C)C(=O)N[C@@H](CC(C)C)C(=O)N[C@@H](CCCNC(=N)N)C(=O)N[C@]1(C)CCCCCCC=CCCC[C@@](C)(C(=O)N[C@@H](Cc2ccc(O)cc2)C(=O)N[C@@H](Cc2ccc(O)cc2)C(=O)N[C@@H](C)C(N)=O)NC(=O)[C@H](CC(N)=O)NC(=O)[C@H](Cc2ccccc2)NC(=O)[C@H](C)NC(=O)[C@H](CC(=O)O)NC(=O)CNC(=O)[C@H]([C@@H](C)CC)NC1=O, also called Ac-IWF4tBuAQALR$r8IGDAFN$YYA-NH2) [SEQ ID NO: 1684]
67 | 5.2 | 12 | Ac-IWIAQALR[R8]IGDQFN[S5]YYA-NH2 (staple 9-16; SMILES CC[C@H](C)[C@H](NC(C)=O)C(=O)N[C@@H](Cc1c[nH]c2ccccc12)C(=O)N[C@H](C(=O)N[C@@H](C)C(=O)N[C@@H](CCC(N)=O)C(=O)N[C@@H](C)C(=O)N[C@@H](CC(C)C)C(=O)N[C@@H](CCCNC(=N)N)C(=O)N[C@]1(C)CCCCCCC=CCCC[C@@](C)(C(=O)N[C@@H](Cc2ccc(O)cc2)C(=O)N[C@@H](Cc2ccc(O)cc2)C(=O)N[C@@H](C)C(N)=O)NC(=O)[C@H](CC(N)=O)NC(=O)[C@H](Cc2ccccc2)NC(=O)[C@H](CCC(N)=O)NC(=O)[C@H](CC(=O)O)NC(=O)CNC(=O)[C@H]([C@@H](C)CC)NC1=O)[C@@H](C)CC) [SEQ ID NO: 1650]
 | 11 | 3 | Ac-IW[Bip]AQALR[R8]IGDAFN[S5]YYA-NH2 (staple 9-16; SMILES CC[C@H](C)[C@H](NC(C)=O)C(=O)N[C@@H](Cc1c[nH]c2ccccc12)C(=O)N[C@@H](Cc1ccc(-c2ccccc2)cc1)C(=O)N[C@@H](C)C(=O)N[C@@H](CCC(N)=O)C(=O)N[C@@H](C)C(=O)N[C@@H](CC(C)C)C(=O)N[C@@H](CCCNC(=N)N)C(=O)N[C@]1(C)CCCCCCC=CCCC[C@@](C)(C(=O)N[C@@H](Cc2ccc(O)cc2)C(=O)N[C@@H](Cc2ccc(O)cc2)C(=O)N[C@@H](C)C(N)=O)NC(=O)[C@H](CC(N)=O)NC(=O)[C@H](Cc2ccccc2)NC(=O)[C@H](C)NC(=O)[C@H](CC(=O)O)NC(=O)CNC(=O)[C@H]([C@@H](C)CC)NC1=O, also called Ac-IWBipAQALR$r8IGDAFN$YYA-NH2) [SEQ ID NO: 1686]
12.9 | 10.6 | 3.9 | IWIAQALRAIGDEFNAYYARR (not fully specified; Ac- at N-terminus; -NH2 at C-terminus; $r8 at 9 and $ at 16 joined by all-carbon crosslinker) [SEQ ID NO: 1628]
